Assay results as given in patent publication US20240209113A1 (BEIGENE SWITZERLAND, published 2024).
Numbering of substitutions follows the chain as printed. Where “and” joins values, the source holds several entries; their conditions need not be identical. Identical values can stand only once.

Key:
[1] = molecular target: T1, Mouse CD137 (mouse, UniProt P20334 24-187, limits assumed); experiment: SPR
T1 construct: also called murine CD137
T1 sequence (looked up): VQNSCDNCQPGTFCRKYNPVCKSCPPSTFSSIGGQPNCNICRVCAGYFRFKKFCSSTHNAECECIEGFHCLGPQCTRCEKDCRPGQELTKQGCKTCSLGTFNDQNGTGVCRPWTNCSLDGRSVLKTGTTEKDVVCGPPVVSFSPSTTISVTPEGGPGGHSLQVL

[2] = molecular target: Mouse GPC3 (mouse, UniProt Q8CFZ4 25-558, limits assumed); experiment: SPR
Mouse GPC3, sequence (Q8CFZ4 25-558 limits assumed): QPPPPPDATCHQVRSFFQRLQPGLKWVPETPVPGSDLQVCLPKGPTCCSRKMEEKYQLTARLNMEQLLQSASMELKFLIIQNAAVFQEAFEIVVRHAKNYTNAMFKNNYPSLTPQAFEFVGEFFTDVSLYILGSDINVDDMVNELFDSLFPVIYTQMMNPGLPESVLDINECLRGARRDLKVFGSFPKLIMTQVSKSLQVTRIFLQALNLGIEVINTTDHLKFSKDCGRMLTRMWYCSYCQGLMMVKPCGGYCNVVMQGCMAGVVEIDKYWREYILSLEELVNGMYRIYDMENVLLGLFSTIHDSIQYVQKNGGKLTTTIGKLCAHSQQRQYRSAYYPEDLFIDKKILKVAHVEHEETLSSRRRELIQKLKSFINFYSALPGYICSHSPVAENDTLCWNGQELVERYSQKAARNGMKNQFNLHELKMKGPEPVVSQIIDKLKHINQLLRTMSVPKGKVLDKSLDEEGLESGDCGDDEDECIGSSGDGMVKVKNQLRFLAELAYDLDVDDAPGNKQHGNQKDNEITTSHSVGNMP

[3] = molecular target: FcγRI (UniProt P12314 16-288, limits assumed); experiment: ELISA
FcγRI, sequence (P12314 16-288 limits assumed): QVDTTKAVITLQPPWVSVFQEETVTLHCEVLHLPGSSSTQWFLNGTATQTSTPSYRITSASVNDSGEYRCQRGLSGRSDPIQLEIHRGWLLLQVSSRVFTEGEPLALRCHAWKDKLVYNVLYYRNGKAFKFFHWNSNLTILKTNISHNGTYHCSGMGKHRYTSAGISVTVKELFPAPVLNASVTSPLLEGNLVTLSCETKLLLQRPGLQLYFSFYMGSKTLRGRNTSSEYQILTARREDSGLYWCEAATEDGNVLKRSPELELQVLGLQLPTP

[4] = molecular target: T2, FcγRIIAH131 (UniProt P12318 36-218, limits assumed); experiment: ELISA
T2 sequence (looked up): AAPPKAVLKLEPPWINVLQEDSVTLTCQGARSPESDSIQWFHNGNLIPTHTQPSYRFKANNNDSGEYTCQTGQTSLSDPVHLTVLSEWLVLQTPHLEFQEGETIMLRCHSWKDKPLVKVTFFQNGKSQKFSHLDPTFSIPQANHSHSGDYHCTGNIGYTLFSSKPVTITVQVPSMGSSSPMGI

[5] = molecular target: T3, FcγRIIAR131 (UniProt P12318 36-218, limits assumed); experiment: ELISA
T3 sequence (looked up): T2 sequence (looked up) with H132R

[6] = molecular target: T4, FcγRIIB (UniProt P31994 43-217, limits assumed); experiment: ELISA
T4 sequence (looked up): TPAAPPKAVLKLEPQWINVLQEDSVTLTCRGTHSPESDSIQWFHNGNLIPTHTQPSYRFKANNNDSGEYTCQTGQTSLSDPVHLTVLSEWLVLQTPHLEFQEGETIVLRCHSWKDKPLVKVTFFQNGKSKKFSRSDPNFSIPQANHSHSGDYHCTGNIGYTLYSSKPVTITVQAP

[7] = molecular target: FcγRIIIAV158 (UniProt P08637 17-208, limits assumed); experiment: ELISA
FcγRIIIAV158, sequence (P08637 17-208 F176V limits assumed): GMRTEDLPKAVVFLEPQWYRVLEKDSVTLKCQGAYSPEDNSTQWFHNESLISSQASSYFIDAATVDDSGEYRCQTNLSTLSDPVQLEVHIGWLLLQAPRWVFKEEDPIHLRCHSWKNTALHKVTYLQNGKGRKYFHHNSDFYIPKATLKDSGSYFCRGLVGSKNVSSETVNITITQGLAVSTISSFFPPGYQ

[8] = molecular target: FcγRIIIAF158 (UniProt P08637 17-208, limits assumed); experiment: ELISA
FcγRIIIAF158, sequence (P08637 17-208 limits assumed): as the sequence (P08637 17-208 F176V limits assumed) above, with V160F counted along it

[9] = molecular target: FcγRIIIB (UniProt O75015 17-200, limits assumed); experiment: ELISA
FcγRIIIB, sequence (O75015 17-200 limits assumed): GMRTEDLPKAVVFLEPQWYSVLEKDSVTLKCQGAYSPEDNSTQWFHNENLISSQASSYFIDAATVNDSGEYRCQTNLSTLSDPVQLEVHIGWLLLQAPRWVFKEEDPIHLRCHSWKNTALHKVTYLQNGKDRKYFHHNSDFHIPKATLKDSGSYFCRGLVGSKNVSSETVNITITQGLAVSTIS

[10] = molecular target: T5, Human CD137 (recombinant protein, Example 11) (human, UniProt Q07011 24-186); experiment: SPR
T5 sequence (Q07011 24-186 limits assumed): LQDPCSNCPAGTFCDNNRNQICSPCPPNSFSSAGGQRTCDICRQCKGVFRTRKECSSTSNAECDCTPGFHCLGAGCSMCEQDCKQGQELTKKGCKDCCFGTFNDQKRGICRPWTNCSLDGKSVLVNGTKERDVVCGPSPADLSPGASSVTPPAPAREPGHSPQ

[11] = molecular target: T6, Monkey CD137 (recombinant protein, Example 11) (cynomolgus monkey, UniProt Q07011 24-186 (human entry), limits assumed); experiment: SPR
T6 construct: also called cynomolgus monkey CD137
T6 chain: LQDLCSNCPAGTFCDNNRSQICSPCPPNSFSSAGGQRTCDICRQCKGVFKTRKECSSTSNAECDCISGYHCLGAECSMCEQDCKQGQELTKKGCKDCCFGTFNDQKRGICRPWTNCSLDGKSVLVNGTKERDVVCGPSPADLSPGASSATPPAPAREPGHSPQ

[12] = molecular target: T7, Human GPC3 (recombinant protein, Example 11) (human, UniProt P51654 25-559, limits assumed); experiment: SPR
[13] = molecular target: T8, Monkey GPC3 (cynomolgous monkey, UniProt A0A2K5VK50 24-553); experiment: SPR
T8 construct: Bought protein; also called monkey GPC3 (Cat #GP3-C5225, Acrobiosystem)

[14] = molecular target: T9, full-length human CD137 on cells (human, UniProt Q07011 24-255); experiment: cell-based or functional assay
T9 sequence (Q07011 24-255 limits assumed): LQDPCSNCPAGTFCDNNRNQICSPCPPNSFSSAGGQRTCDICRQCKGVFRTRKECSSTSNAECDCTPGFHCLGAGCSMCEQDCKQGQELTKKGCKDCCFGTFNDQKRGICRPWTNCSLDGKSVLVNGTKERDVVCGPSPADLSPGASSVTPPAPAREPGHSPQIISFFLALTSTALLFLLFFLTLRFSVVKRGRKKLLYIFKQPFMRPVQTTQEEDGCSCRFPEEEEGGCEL

[15] = molecular target: T10, human GPC3 on cells (human, UniProt P51654 25-559); experiment: cell-based or functional assay
[16] = molecular target: T9, full-length human CD137 on cells; experiment: FACS on HuT78/CD137 cells
[17] = molecular target: T10, human GPC3 on cells; experiment: FACS on Hepa1-6T-OS8-GPC3 cells
[18] = molecular target: C1q (UniProt P02745 23-245; P02746 28-253; P02747 29-245); experiment: C1q binding ELISA
C1q, sequence (P02745 23-245, chain 1 of 3): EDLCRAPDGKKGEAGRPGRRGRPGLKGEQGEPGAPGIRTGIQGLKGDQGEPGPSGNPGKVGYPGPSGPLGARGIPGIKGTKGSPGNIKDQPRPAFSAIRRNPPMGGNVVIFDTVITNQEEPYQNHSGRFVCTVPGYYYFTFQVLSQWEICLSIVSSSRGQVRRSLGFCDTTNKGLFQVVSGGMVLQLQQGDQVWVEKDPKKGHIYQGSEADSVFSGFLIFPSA
C1q, sequence (P02746 28-253, chain 2 of 3): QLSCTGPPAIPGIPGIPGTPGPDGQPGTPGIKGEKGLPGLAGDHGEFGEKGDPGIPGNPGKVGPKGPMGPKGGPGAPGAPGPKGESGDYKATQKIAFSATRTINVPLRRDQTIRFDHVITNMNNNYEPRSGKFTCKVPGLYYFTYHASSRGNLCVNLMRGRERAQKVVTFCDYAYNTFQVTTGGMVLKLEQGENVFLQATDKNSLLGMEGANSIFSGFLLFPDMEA
C1q, sequence (P02747 29-245, chain 3 of 3): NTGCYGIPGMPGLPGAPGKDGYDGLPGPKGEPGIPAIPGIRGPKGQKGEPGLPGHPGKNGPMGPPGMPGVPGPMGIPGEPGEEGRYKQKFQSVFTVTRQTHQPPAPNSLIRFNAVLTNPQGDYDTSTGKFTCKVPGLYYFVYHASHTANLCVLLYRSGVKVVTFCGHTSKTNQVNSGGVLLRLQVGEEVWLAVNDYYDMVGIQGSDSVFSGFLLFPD

[19] = molecular target: human CD137 ECD mutant F36A (human, UniProt Q07011 24-186); experiment: ELISA on wild type and mutant CD137 proteins
human CD137 ECD mutant F36A, sequence (Q07011 24-186 F36A limits assumed): as the sequence (Q07011 24-186 limits assumed) above, with F13A counted along it

[20] = molecular target: human CD137 ECD mutant P47A (human, UniProt Q07011 24-186); experiment: ELISA on wild type and mutant CD137 proteins
human CD137 ECD mutant P47A, sequence (Q07011 24-186 P47A limits assumed): as the sequence (Q07011 24-186 limits assumed) above, with P24A counted along it

[21] = molecular target: human CD137 ECD mutant P49A (human, UniProt Q07011 24-186); experiment: ELISA on wild type and mutant CD137 proteins
human CD137 ECD mutant P49A, sequence (Q07011 24-186 P49A limits assumed): as the sequence (Q07011 24-186 limits assumed) above, with P26A counted along it

[22] = molecular target: T11, DS50b (human GPC3 AA 511-560) (human, constructed to the N terminal of biotin, generating DS50b-KLH (so in the source)); experiment: ELISA on DS50b-KLH [B]
T11 construct: also called DS50b-KLH
T11 peptide: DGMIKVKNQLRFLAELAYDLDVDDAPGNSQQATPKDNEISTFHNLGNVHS

[23] = molecular target: T12, GK28b (human GPC3 AA 537-563) (human, constructed to the N terminal of biotin, generating GK28b-KLH (so in the source)); experiment: ELISA on GK28b-KLH [A]
T12 construct: also called GK28b-KLH
T12 peptide: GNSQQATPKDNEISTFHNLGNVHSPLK

[24] = molecular target: T13, huGPC3-His (human, UniProt P51654 25-559); experiment: ELISA on huGPC3-His [C]
T13 construct: not shown: His tag

[25] = molecular target: T5, Human CD137 (recombinant protein, …); experiment: dual antigen binding ELISA with CD137 and GPC3 bound at the same time; which antigen is coated is not stated
[26] = molecular target: T7, Human GPC3 (recombinant protein, …); experiment: as above

B1: BE-830 (bispecific antibody, human IgG1, kappa)
heavy: QVQLVQSGAEVKKPGASVKVSCKASGYTFTDYEMHWVRQAPGQGLEWMGALDPKTGDTAYSQKFKGRVTLTADKSTSTAYMELSSLTSEDTAVYYCTRFYSYTYWGQGTLVTVSSASTKGPSVFPLAPSSKSTSGGTAALGCLVKDYFPEPVTVSWNSGALTSGVHTFPAVLQSSGLYSLSSVVTVPSSSLGTQTYICNVNHKPSNTKVDKKVEPKSCDKTHTCPPCPAPPAAGPSVFLFPPKPKDTLMISRTPEVTCVVVDVSHEDPEVKFNWYVDGVEVHNAKTKPREEQYNSTYRVVSVLTVLHQDWLNGKEYKCKVSNKALAAPIEKTISKAKGQPREPQVYTLPPSREEMTKNQVSLTCLVKGFYPSDIAVEWESNGQPENNYKTTPPVLDSDGSFFLYSKLTVDKSRWQQGNVFSCSVMHEALHNHYTQKSLSLSPGKGGGGSEVQLLESGGGLVQPGGSLRLSCAASGFTVSAEDVGWVRQAPGKGLEWVSAILDKGGSTYYAESVKGRFTISRDNAKNTLYLQMSSLRAEDTAVYYCARIVYHAGGGVTFDTRGQGTQVTVSS
light: DVVMTQSPLSLPVTPGEPASISCRSSQSLVHSNRNTYLHWYLQKPGQSPQLLIYKVSNRFSGVPDRFSGSGSGTDFTLKISRVEAEDVGVYYCSQNTHVPPTFGQGTKLEIKRTVAAPSVFIFPPSDEQLKSGTASVVCLLNNFYPREAKVQWKVDNALQSGNSQESVTEQDSKDSTYSLSSTLTLSKADYEKHKVYACEVTHQGLSSPVTKSFNRGEC
notes: also called GPC3×CD137 multispecific antibody BE-830; GPC3 x CD137 (BE-830)
binding result [1]: no binding
binding result [2]: no binding
binding result [3]: no binding
binding result [4]: no binding
binding result [5]: no binding
binding result [6]: no binding
binding result [7]: no binding
binding result [8]: no binding
binding result [9]: no binding
Kd [10]: 40.1 nM
koff [10]: 0.00484 s⁻¹
kon [10]: 121000 M⁻¹ s⁻¹
Kd [11]: 19.2 nM
koff [11]: 0.00291 s⁻¹
kon [11]: 152000 M⁻¹ s⁻¹
Kd [12]: 0.559 nM
koff [12]: 0.000312 s⁻¹
kon [12]: 559000 M⁻¹ s⁻¹
Kd [13]: 0.643 nM
koff [13]: 0.000273 s⁻¹
kon [13]: 425000 M⁻¹ s⁻¹
EC50, cell-based bioluminescent assay (NFκB luciferase in JK-NFκB-CD137 co-cultured with Hepa1-6T-OS8-GPC3) [14]: 0.149 µg/ml and 0.86 nM
EC50, cell-based bioluminescent assay (NFκB luciferase in JK-NFκB-CD137 co-cultured with Hepa1-6T-OS8-GPC3) [15]: 0.149 µg/ml and 0.86 nM
EC50 [16]: 0.712 µg/mL and 4.09 nM
EC50 [17]: 1.11 µg/mL and 6.41 nM
EC50 (read off the curve) [18]: ~2 µg/mL
decrease of binding activity against wild type CD137 [19]: > 75%
decrease of binding activity against wild type CD137 [20]: > 75%
decrease of binding activity against wild type CD137 [21]: > 75%
EC50 (read off the curve) [22]: ~0.009 µg/mL
EC50 (read off the curve) [23]: ~0.008 µg/mL
EC50 (read off the curve) [24]: ~0.04 µg/mL
EC50 (read off the curve) [25]: ~0.07 µg/mL
EC50 (read off the curve) [26]: ~0.07 µg/mL
